Measurements reported in the domain aggregation screens of Martell et al. (2025).

Assay: soluble fraction after stress (log2 fold change); higher = more stays soluble; pooled small domains, quantitative proteomics
Settings: stress: 50 degC
How it was run: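 Pooled custom libraries of small protein domains were measured in a high-throughput format, with quantitative proteomics as the read-out. Each library was stressed at 50°C. Aggregation propensity is given as the base-two logarithm of the fold change in how much of each protein stays soluble after the stress. Higher values mean a larger share of the protein remains in solution.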

| Sequence | soluble fraction (log2) |
| --- | --- |
| HMKEQLEAYVNRLFADAALTIRNAEVRQEILQHALDRYDDLIASGKTEQEAYDETVSGIGDVSGLYEHK | -0.195 |
| HMKETKVIHVHLIFKKTSRFFGSISAIYSEFTAEEIGITEETLRHKGLSDGVSFATKKAIIQQGVLIR | -1.67 |
| HMKEVDSESAFAERGISEVWIPALQKMGILTLEALDAANPNKVFNDLGGMRKKLKIDAAMPTKDEVTAWIQ | 0.0238 |
| HMKEVKPSDFFLSKLDEDHNLIEKFNALSSFKQKEFIEYIDSAKQEKTKHDRFEKIKPILLSNIGLNDKYR | 0.075 |
| HMKEVVVPDYFLKQLQKNKKAFITFNNFSPSHKREYVEWITEAKTEETKNRRMKSAIEWMSEGKSRNWKYI | 0.0292 |
| HMKFGETLIDLRKRNGLTQEELAAKLYVTRQAVSRWERGEVTPGIDMLKLIANVLNEPVAHLLDW | -0.977 |
| HMKFNRPMSEILQEWENKLGTTSDAELAGLIGVVTMTINRWRKNETKPDLSALNRYDRIVNLVVNNIKQL | -0.432 |
| HMKFPPELVEFIEGLSLLKPPLNYATVHRRAEKLAIKKGWASPSYSTVRNIIRKLSPALTTLAHEG | -2.15 |
| HMKGAADPAIKQKVLDYLDTVEKAKSKEIAKAISEEKSAVDLAVKELAFEDKVEYLYITTTFVALKGKVA | -0.168 |
| HMKGALQIAIEEGFNWNLDKKYWNIVQSTVIAKRLGLKTTSGLKEAIEGMGGEYKRTKKARGYLVPTFKD | -2.31 |
| HMKGDYWIIDLDKNYQYAIISEPDRQYLWILSRSPNMDTQTLETLKEKIRSKGFDLTYLKQTL | -0.844 |
| HMKGHQASTTWISERVKDIIKEDPTLGARKLQKRLEIHYNIELSYFKVWSGKNLQWMIFMVL | 0.022 |
| HMKGSYTVKSGDNLWSIARKFYGGSGSTWTKIYSANKSTIESTARRYGRSSSDNGHWIYPGTVLVIP | 0.0541 |
| HMKGVSFEEIERAVRTAQNPEADETAQQHAGMVFSRMEGNELFDKLVQSSSTIGKKITGLMDYYL | -0.0889 |
| HMKGYIGESKARNIALKKAPGASITKFEFDKDDGIAVYEVELRKGIYEYELKINAVTGAIIEFEKDIE | -1.46 |
| HMKHKYWEIKERIKKDILNEVYKKGESIPSERDLAGIYDVTRVTVQKAMAMLVQEGYIERIHGKGMFVLKN | -0.801 |
| HMKHRFVVGEVLSIGKLQHEITLKTAQGERKFQLDKQDLPASIQDGAKVRAELNEAGRVIDVHPLK | 0.355 |
| HMKHYMKITDISLQTRDKNRVNVSVDGKYRFSLDVFQVGELGLKVGREYTDEELTALEDESQFG | -1.41 |
| HMKIATIELVKEAVKSKLGKFTKRDIMELVPSVGKTTIENMLKQLIGEGYIERHGKGRATFYVK | -0.56 |
| HMKIDANTFTSIEKQLFVLLSKTPTPMGSIFVALAKEDKEAVWEVIHFLEAENRLIMNEDGTIQL | -1.39 |
| HMKIDEVSFAYIERTLFSMLGKLPTPVNKVIATIGEEKKETIWEVIRFLESENKLITNEDGTLQL | -1.55 |
| HMKIDNIIIYITGGVKKEGVYELPDGSRISDAIEQAEGLKANADTSSINLAYKLEDGMKIKIPLQGEN | -0.0298 |
| HMKIDNPEYQKIMDMIPYFFQTRNYDEAIEALSYVIEQEPSFSEAYNKRATFYFMMGDFENSMKDIESTLA | -0.155 |
| HMKIEEVIEKLKTDSIISRKEYEDIVRQINPNLSDRTIFWQLAKLQDMGVLQKIGQNSFHVRN | -0.26 |
| HMKIERKGDESYLSFVERATSALSDGLIDYQQWGRAVVGEDLYSEENTRRIAKFFAQFIQNLEND | -1.9 |
| HMKIKAKYTTDFGIRIYAPKPGKNYWRISYVDLDGKLRDTTATSEKTALDKSAEIEVLLRNN | -1.89 |
| HMKILALETSAKAVSAAVSENGRILASGYQDTGLTHSRTLMPIVEHILKNTDLKLSDMDAIAVAVGPG | 0.211 |
| HMKIMSLSERHQKILELLKVNGIVSVNSLSRQLNVSSVTIRKDLGLLEEKKLLYRSHGGAIQID | -3.08 |
